From patent US20170145086A1 (VISTERRA, published 2017)

T1: HA-GCN4 hAPRIL (amino acid residues 105-250) (human, UniProt O75888 105-250)
T1 construct: Bought (R&D Systems); also called HA-tagged GCN4 human APRIL; HA-GCN4-huAPRIL; not shown: N-terminal HA tag; GCN4 isoleucine zipper oligomerization domain
T1 sequence: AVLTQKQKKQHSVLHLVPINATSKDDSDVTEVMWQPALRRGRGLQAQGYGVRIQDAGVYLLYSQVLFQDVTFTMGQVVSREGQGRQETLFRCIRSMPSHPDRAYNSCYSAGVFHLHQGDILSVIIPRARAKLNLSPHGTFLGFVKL

T2: HA-GCN4 mAPRIL (amino acid residues 96-241) (mouse, UniProt Q9D777 96-241, Assembles as a homotrimer through the GCN4 zipper; one protomer is given.)
T2 construct: Bought (R&D Systems); also called HA-tagged mouse APRIL (R&D Systems); recombinant mouse APRIL; not shown: N-terminal HA tag and GCN4 isoleucine-zipper trimerisation domain, with any linker, of the bought R&D Systems protein
T2 sequence: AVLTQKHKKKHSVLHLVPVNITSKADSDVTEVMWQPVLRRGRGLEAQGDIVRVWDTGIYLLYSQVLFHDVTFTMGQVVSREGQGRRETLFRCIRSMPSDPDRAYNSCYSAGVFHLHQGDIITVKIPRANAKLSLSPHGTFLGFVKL


Columns and labels:
[1] = target: T1, HA-GCN4 hAPRIL (amino acid residues …); experiment: blocking ELISA; blocked: human APRIL binding to TACI-Fc
[2] = target: T2, HA-GCN4 mAPRIL (amino acid residues …); experiment: indirect ELISA on mouse APRIL; row printed 4504, legend paragraph 738 says 4540
[3] = target: T1, HA-GCN4 hAPRIL (amino acid residues …); experiment: indirect ELISA on human APRIL; row printed 4504, legend paragraph 738 says 4540
[4] = target: T1, HA-GCN4 hAPRIL (amino acid residues …); experiment: cell-based or functional assay
[5] = target: T1, HA-GCN4 hAPRIL (amino acid residues …); experiment: blocking ELISA; blocked: human APRIL binding to BCMA-Fc
In short: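 HA-GCN4-tagged human APRIL (15 ng/mL) preincubated 1 h at 30 °C with antibody (0.03–30 μg/mL), then added 1 h at 30 °C to plates coated with BCMA-Fc. Bound APRIL detected with anti-HA-HRP/TMB at 450 nm; IC₅₀ from 4-parameter fit of antibody titration curves.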

[6] = target: T1, HA-GCN4 hAPRIL (amino acid residues …); experiment: blocking ELISA, 4-parameter fit; blocked: human APRIL binding to human TACI-Fc
Procedure: Recombinant TACI-Fc or BCMA-Fc was coated on 96 well plates in 0.1 M carbonate-bicarbonate buffer (pH 9.6), overnight at 4° C. Plates were washed three times with 1×PBST (PBS+0.025% Tween 20) followed by blocking with 1% BSA in 1×PBS, 37° C. for 1 hour. All subsequent wash steps were carried out with 1×PBST. To assess antibody blocking, either 15 ng/mL or 50 ng/mL HA-GCN4-huAPRIL was preincubated with varying antibody concentrations ranging from 0.03-30 μg/mL in binding buffer comprised of 1% BSA and 0.025% Tween-20 in 1×PBS. Preincubation was carried out at 30° C. for 1 hour with mixing. Antibody-APRIL premix with 50 ng/mL APRIL or 15 ng/mL APRIL was then added to TACI-Fc coated or BCMA-Fc coated plates, respectively, and incubated for an additional hour at 30° C. HA-tagged APRIL binding to either receptor was quantified using a goat polyclonal anti-HA tag-HRP antibody (Abcam) added at a 1:10000 dilution followed by colorimetric development using 100 μl/well of freshly prepared TMB substrate (KPL) carried out for up to 30 minutes at room temperature before quenching enzymatic reaction by the addition of 1N sulfuric acid. ELISA signal was quantified by absorbance at 450 nm. ELISA data was analyzed by non-linear regression. IC₅₀ values were calculated based on a 4 parameter fit of antibody titration curves. […] Non-blocking antibodies Aprly-1 or Aprly-5 (Enzo Biosciences) were used as negative controls. Mouse specific, blocking antibody aprily-1-1 (Adipogen) was generally used as a positive control in experiments using mouse APRIL (HA-GCN4-mAPRIL).

[7] = target: T1, HA-GCN4 hAPRIL (amino acid residues …); experiment: indirect ELISA on coated HA-GCN4 human APRIL; EC50 from non-linear regression
Description: Purified antibodies were further characterized for APRIL binding, APRIL species cross reactivity (human APRIL vs. mouse APRIL), and receptor blocking activity using TACI-Fc. For binding, an APRIL-based indirect ELISA was used to determine by first approximation the relative affinity of purified anti-APRIL antibodies to either human APRIL or mouse APRIL. ELISA method was as generally described above. […] Blocking and wash steps were completed as described. Binding of anti-APRIL antibodies to APRIL was quantified using an 8 point dilution of test antibody that spanned over a four log scale. Antibody binding to APRIL was detected using a rabbit anti-mouse IgG (H+L)-HRP conjugate (Jackson ImmunoResearch Laboratories). Antibody binding data was analyzed by non-linear regression analysis using a 3 parameter fit to determine max binding and apparent EC₅₀ values. […] Mouse specific antibody Apry-1-1 (Adipogen) was likewise used for quantification of antibody binding to mouse APRIL.

[8] = target: T2, HA-GCN4 mAPRIL (amino acid residues …); experiment: blocking ELISA; blocked: mouse APRIL binding to human BCMA-Fc
Procedure: Recombinant TACI-Fc or BCMA-Fc was coated on 96 well plates in 0.1 M carbonate-bicarbonate buffer (pH 9.6), overnight at 4° C. Plates were washed three times with 1×PBST (PBS+0.025% Tween 20) followed by blocking with 1% BSA in 1×PBS, 37° C. for 1 hour. All subsequent wash steps were carried out with 1×PBST. To assess antibody blocking, either 15 ng/mL or 50 ng/mL HA-GCN4-huAPRIL was preincubated with varying antibody concentrations ranging from 0.03-30 μg/mL in binding buffer comprised of 1% BSA and 0.025% Tween-20 in 1×PBS. Preincubation was carried out at 30° C. for 1 hour with mixing. Antibody-APRIL premix with 50 ng/mL APRIL or 15 ng/mL APRIL was then added to TACI-Fc coated or BCMA-Fc coated plates, respectively, and incubated for an additional hour at 30° C. HA-tagged APRIL binding to either receptor was quantified using a goat polyclonal anti-HA tag-HRP antibody (Abcam) added at a 1:10000 dilution followed by colorimetric development using 100 μl/well of freshly prepared TMB substrate (KPL) carried out for up to 30 minutes at room temperature before quenching enzymatic reaction by the addition of 1N sulfuric acid. ELISA signal was quantified by absorbance at 450 nm. ELISA data was analyzed by non-linear regression. IC₅₀ values were calculated based on a 4 parameter fit of antibody titration curves. […]

Row | IC50 [1] | Relative Activity (normalised to 2419) [1] | EC50 [2] | EC50 [3] | IC50 (inhibition of APRIL-mediated BCMA NFκB signaling) [4] | IC50 (inhibition of APRIL-mediated TACI NFκB signaling) [4] | IC50 [5] | Relative Activity (normalised to 2419) [5] | IC50 [6] | EC50 [7] | IC50 (read off the curve) [8] | Binder
1 | 0.4 nM | 1.45 | 0.00151 nM | 0.00139 nM | ~0.81 nM | ~2.25 nM | 0.67 nM | 2.85 |  |  |  | monoclonal antibody 4540 (antibody, V domains shown, mouse-derived) VH: QVQLQQSGPELVKPGASVKISCKASGYTFADYYINWVKQRPGQGLEWIGWIFPGSGSTYYNEKFKGKATLTVDKSSSTAYMLLSSLTSEDSAVYFCARGDSGRAMDYWGQGTSVTVSS VL: DIQMTQSPSSLSASLGGKVTITCKASQDINKYIAWYQHKPGKGPRLLIHYTSTLQSGIPSRFSGSGSGRDYSFSISNLEPEDNATYYCLQYDNLLTFGAGTKLELK
2 |  |  |  |  |  |  |  |  | 0.74 nM | < 0.2 nM |  | monoclonal antibody 2218 (antibody, mouse IgG2, V domains shown) VH: DVQLQESGPGLVKPSQSLSLTCSVTGYSITSGYYWNWIRQFPGNKLEWMGYISYDGYNNYNPSLKNRISITRDTSKNQFFLKLNSVTTEDTATYYCANYYDYEDWYFGVWGTGTTVTVSS VL: DIVLTQSPASLAMSLGKRATISCRASESVSIIGTNSIHWYQQKPGQPPKLLIYHASNLETGVPARFSGSGSRTDFTLTIDPVEEDDVAIYYCLQSRKIPYTFGGGTKLEIK
3 |  |  |  |  |  |  |  |  | 4.95 nM |  | ~0.3 µg/mL | monoclonal antibody 3530 (antibody, mouse IgG2, V domains shown) VH: QVQLQQSGAELVRPGASVKLSCKASGYTFTDHEMHWVRQTPVHGLEWIGVIDPDTGDTTYNQKFKGKATLTADKSSSTAYMDLRSLTSEDSAVFYCTRWTGGDYWGHGTTLTVSS VL: DAVMTQTPLSLSVTIGQPASISCKSSQSLLYSDGKTYLNWFQQRPGQSPKRLMYQVSKLDPGIPDRFSGSGSETDFTLKISRVEAEDLGVYYCLQGTYYPYTFGSGTKLEIK
